Measured values as given in patent publication EP4471048A1, “PEPTIDE INHIBITORS OF INTERLEUKIN-23 RECEPTOR” (Zealand Pharma A/S, priority 2023, dated 2024).
*1 amine or outer side, *2 acyl side, *3 side chain or, on linkers, in order; H or OH if unused. Bridges are numbered along the chain shown (N, C = ends). Where no end group is shown, it is not given here. [ ]: non-standard residue; d: D form. 4‑Aminomethyl‑phenylacetyl = 4-aminomethyl-phenylacetyl unit, its amine closes the lactam, O=C(Cc1ccc(CN[*:1])cc1)[*:2]; (N3)‑K = lysine with the alpha-amine converted to an azide, [N-]=[N+]=N[C@@H](CCCCN[*:3])C(=O)[*:2]; Trp(1-Me) = Cn1cc(C[C@H](N)C(=O)O)c2ccccc21; 2Nal = N[C@@H](Cc1ccc2ccccc2c1)C(=O)O; AEF = NCCOc1ccc(C[C@H](N)C(=O)O)cc1; 3Pal = N[C@@H](Cc1cccnc1)C(=O)O; αMeL = CC(C)C[C@](C)(N)C(=O)O; CH2COCH2 = O=C(C[*:1])C[*:2]; NMeK = CN[C@@H](CCCCN)C(=O)O; dOrn = NCCC[C@@H](N)C(=O)O; NMeS = CN[C@@H](CO)C(=O)O; dDab = NCC[C@@H](N)C(=O)O; Orn = NCCC[C@H](N)C(=O)O; Pra = C#CC[C@H](N)C(=O)O; Dab = NCC[C@H](N)C(=O)O; βAla = NCCC(=O)O

T1: Nluc-IL23R fusion protein (human, UniProt Q5VWK5 22-629)
T1 construct: range 22-629; Stably expressed in HEK293 cells; also called hIL-23R; human IL-23R; not shown: Nanoluc protein (N1371, Promega) at the N-terminus, after a secretion signal
T1 sequence (looked up): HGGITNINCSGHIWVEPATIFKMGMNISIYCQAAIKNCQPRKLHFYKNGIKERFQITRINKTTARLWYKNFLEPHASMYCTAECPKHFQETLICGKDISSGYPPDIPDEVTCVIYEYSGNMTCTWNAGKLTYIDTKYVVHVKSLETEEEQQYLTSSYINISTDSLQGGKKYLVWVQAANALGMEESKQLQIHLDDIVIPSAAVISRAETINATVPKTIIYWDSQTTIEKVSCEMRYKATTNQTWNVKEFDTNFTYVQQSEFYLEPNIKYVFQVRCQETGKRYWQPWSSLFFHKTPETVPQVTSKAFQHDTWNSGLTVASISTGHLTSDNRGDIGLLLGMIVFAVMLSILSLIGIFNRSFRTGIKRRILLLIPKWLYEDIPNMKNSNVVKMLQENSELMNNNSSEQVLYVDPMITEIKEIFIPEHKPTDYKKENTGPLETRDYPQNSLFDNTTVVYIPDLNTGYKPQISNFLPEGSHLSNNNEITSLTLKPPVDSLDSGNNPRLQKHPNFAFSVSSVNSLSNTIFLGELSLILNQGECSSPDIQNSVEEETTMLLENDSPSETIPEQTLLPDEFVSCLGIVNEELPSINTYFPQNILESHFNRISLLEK

B1: Compound 11 (peptide)
peptide: [dDab]TVWQD[AEF][2Nal][αMeL]E[Dab][3Pal]-NH2
modifications: lactam 1-10, N-6
SMILES: CC(C)C[C@]1(C)NC(=O)[C@H](Cc2ccc3ccccc3c2)NC(=O)[C@H](Cc2ccc(OCCN)cc2)NC(=O)[C@@H]2CC(=O)N[C@H](CCNC(=O)CC[C@@H](C(=O)N[C@@H](CCN)C(=O)N[C@@H](Cc3cccnc3)C(N)=O)NC1=O)C(=O)N[C@@H]([C@@H](C)O)C(=O)N[C@@H](C(C)C)C(=O)N[C@@H](Cc1c[nH]c3ccccc13)C(=O)N[C@@H](CCC(N)=O)C(=O)N2
B2: Compound 110 (peptide)
peptide: K[βAla]WQEW[2Nal][αMeL]E[Dab][3Pal]-NHMe
modifications: lactam 1-9, N-5
SMILES: CNC(=O)[C@H](Cc1cccnc1)NC(=O)[C@H](CCN)NC(=O)[C@@H]1CCC(=O)NCCCC[C@@H]2NC(=O)CC[C@H](NC(=O)[C@H](CCC(N)=O)NC(=O)[C@H](Cc3c[nH]c4ccccc34)NC(=O)CCNC2=O)C(=O)N[C@@H](Cc2c[nH]c3ccccc23)C(=O)N[C@@H](Cc2ccc3ccccc3c2)C(=O)N[C@@](C)(CC(C)C)C(=O)N1
B3: Compound 41 (peptide)
peptide: [(N3)‑K]TWQ[Pra][AEF][2Nal][αMeL]E[Dab][3Pal]-NHMe
modifications: lactam 1-9; triazole (positions not given here); not fully specified (bridges); printed as [(N₃)-K](1c)(6g)^{†}TWQ[Pra](6g)[Y(2-aminoethoxy)][2-Nal][2-Me-Leu]E(1c)[Dab][3-(3-Pyridyl)-Ala]-[NHMe]
B4: Compound 42 (peptide)
peptide: XTWQXXXXEXX
modifications: not fully specified; [{d}(N3)-K](1c)(6g)^†TWQ[Hpg](6g)[Y(2-aminoethoxy)][2-Nal][2-Me-Leu]E(1c)[Dab][3-(3-Pyridyl)-Ala]-[NHMe]; (1c) [2,11] lactam; (6g) [2,7] 1,4-disubstituted 1,2,3-triazole bridge; ^† alpha-amine converted into an azide in bridge
B5: Compound 76 (peptide)
peptide: KTVWQE[AEF][2Nal][Dab]E[Dab][3Pal]
modifications: lactam 1-10, 9-C; lactam (positions not given here); not fully specified (bridges); printed as K(1c)(6c)^{†}TVWQE(6c)[Y(2-aminoethoxy)][2-Nal][Dab](7c)E(1c)[Dab][3-(3-Pyridyl)-Ala](7c)^{‡}
B6: Compound 10 (peptide)
peptide: [dOrn]TVWQD[AEF][2Nal][αMeL]E[Dab][3Pal]-NH2
modifications: lactam 1-10, N-6
SMILES: CC(C)C[C@]1(C)NC(=O)[C@H](Cc2ccc3ccccc3c2)NC(=O)[C@H](Cc2ccc(OCCN)cc2)NC(=O)[C@@H]2CC(=O)N[C@H](CCCNC(=O)CC[C@@H](C(=O)N[C@@H](CCN)C(=O)N[C@@H](Cc3cccnc3)C(N)=O)NC1=O)C(=O)N[C@@H]([C@@H](C)O)C(=O)N[C@@H](C(C)C)C(=O)N[C@@H](Cc1c[nH]c3ccccc13)C(=O)N[C@@H](CCC(N)=O)C(=O)N2
B7: Compound 80 (peptide)
peptide: [NMeK][βAla]WQE[AEF][2Nal][αMeL]E[Dab][3Pal]-NHMe
modifications: lactam 1-9, 1-5; not fully specified; printed as [N-Me-Lys](1c)(6c)^†[3-Aminopropanoyl]WQE(6c)[Y(2-aminoethoxy)][2-Nal][2-Me-Leu]E(1c)[Dab][3-(3-Pyridyl)-Ala]-[NHMe], (1c) [2,11] lactam, (6c) [2,7] lactam, ^† alpha-amine in bridge; also: alpha-amine of residue 1 in bridge, which of the two lactams not given here
B8: Compound 91 (peptide)
peptide: [Orn][βAla]WQE[AEF][2Nal][αMeL]E[Dab][3Pal]-NHMe
modifications: lactam 1-9, 1-5; not fully specified; printed as [Orn](1c)(6c)^†[3-Aminopropanoyl]WQE(6c)[Y(2-aminoethoxy)][2-Nal][2-Me-Leu]E(1c)[Dab][3-(3-Pyridyl)-Ala]-[NHMe], (1c) [2,11] lactam, (6c) [2,7] lactam, ^† alpha-amine in bridge; also: alpha-amine of residue 1 in bridge, which of the two lactams not given here
B9: Compound 79 (peptide)
peptide: K[βAla][Trp(1-Me)]QE[AEF][2Nal][αMeL]E[Dab][3Pal]-NHMe
modifications: lactam 1-9, 1-5; not fully specified; printed as K(1c)(6c)^†[3-Aminopropanoyl][1-Me-Trp]QE(6c)[Y(2-aminoethoxy)][2-Nal][2-Me-Leu]E(1c)[Dab][3-(3-Pyridyl)-Ala]-[NHMe], (1c) [2,11] lactam, (6c) [2,7] lactam, ^† alpha-amine in bridge; also: alpha-amine of residue 1 in bridge, which of the two lactams not given here
B10: Compound 43 (peptide)
peptide: KWQE[AEF][2Nal][αMeL]E[Dab][3Pal]-NHMe
modifications: lactam 1-8, N-4
SMILES: CNC(=O)[C@H](Cc1cccnc1)NC(=O)[C@H](CCN)NC(=O)[C@@H]1CCC(=O)NCCCC[C@@H]2NC(=O)CC[C@H](NC(=O)[C@H](CCC(N)=O)NC(=O)[C@H](Cc3c[nH]c4ccccc34)NC2=O)C(=O)N[C@@H](Cc2ccc(OCCN)cc2)C(=O)N[C@@H](Cc2ccc3ccccc3c2)C(=O)N[C@@](C)(CC(C)C)C(=O)N1
B11: Compound 102 (peptide)
peptide: [iso‑Lys]WQE[AEF][2Nal][αMeL]E[Dab][3Pal]-NHMe
modifications: lactam (positions not given here); not fully specified (bridges); printed as [iso-Lys](1c)^†(6c)WQE(6c)[Y(2-aminoethoxy)][2-Nal][2-Me-Leu]E(1c)[Dab][3-(3-Pyridyl)-Ala]-[NHMe], (1c) [2,11] lactam, (6c) [2,7] lactam, ^† alpha-amine in bridge
B12: Compound 63 (peptide)
peptide: KIVWQE[AEF][2Nal][αMeL]EP[3Pal]-NHMe
modifications: lactam 1-10; lactam (positions not given here); not fully specified (bridges); printed as K(1c)(6c)^{†}IVWQE(6c)[Y(2-aminoethoxy)][2-Nal][2-Me-Leu]E(1c)P[3-(3-Pyridyl)-Ala]-[NHMe]

molecular target: T1, Nluc-IL23R fusion protein; experiment: BRET competition vs TAMRA-labelled peptide, Nluc-IL23R membranes
Note: test concentration or dose not given here.

% displacement [%] | Binder
104 | B1
100 | B2
98 | B3
99 | [iso‑Glu]WQE[AEF][2Nal][αMeL]K[Dab][3Pal]-NHMe (lactam 1-8, N-4; also: iso-Glu: alpha-carboxylic acid in bridge) [Compound 106]
102 | [4‑Aminomethyl‑phenylacetyl][NMeS]CWQC[AEF][2Nal][αMeL]E[Dab]-NH2 (lactam N-10; linker 3-6 via CH2COCH2) [Ref 141]
96 | B4
92 | B5
107 | B6
102 | B7
100 | B8
100 | B9
100 | B10
97 | B11
98 | B12
